Reference: patent US9273290B2, “Method for producing phosphite dehydrogenase protein and use thereof” (priority 2011, dated 2016)
Several values for one entry are separate records, joined by “and”; a condition that tells them apart may be missing. Equal values may be shown once.

Legend:
[1] = Activity of phosphite dehydrogenase protein in the presence of inhibitor (relative OD340); format: biochemical; details: no inhibitor = 100.0; for relative value of OD340, average: NaCl, average of experiments
Method: PtxD4506 and PtxDPst, which were purified with use of the HisTrap column in [3. […] An experimental method was based on a method described in the literature “Costas et al., Journal of Biological Chemistry, 2001, 276, 17429-17436.” The experimental method is briefly described below.
A reaction solution was prepared by mixing 100 μL of 100 mM MOPS-KOH (pH 7.25), 50 μL of 10 mM NAD, 5 μL of 5 mM phosphite, 50 μL of 40 mM inhibitor of various kinds (arsenite, nitrate, sulfate, or NaCl), 294 μL of H2O, and 1 μL of 0.5 mg/mL protein-containing solution (a PtxD4506-containing solution, a PtxDPst-containing solution, or a liquid which contained no protein (negative control)).
The reaction solution was reacted for 60 minutes. Note that the reaction solution containing the PtxD4506-containing solution was reacted at 45° C., and the reaction solution containing the PtxDPst-containing solution was reacted at 30° C. Subsequently, OD340 was measured. A relative value of OD340 of each sample was calculated relative to 100 of a value of OD340 of the reaction solution containing the liquid which contained no protein (negative control). Note that each experiment was conducted 4 times or more, and an average of relative values obtained in the 4 or 5 experiments was also calculated.

[2] = Heat resistance of phosphite dehydrogenase protein (specific activity vs temperature, FIG. 3); format: biochemical; details: 0.2 mg/mL in 50 mM MOPS pH 7.4, kept at 10° C. to 60° C.; 1 mM NAD+, 1 mM phosphorous acid
Method: After the ultracentrifugation, a supernatant was collected to be used as a crude extract for measuring phosphite dehydrogenase activity. A total of 1000 μL of a reaction solution was prepared which contained the crude extract (protein amount: 10 μg), NAD^+ (1 mM), phosphorous acid (1 mM), and a MOPS-KOH buffer (20 mM, pH 7.4). A temperature of the reaction solution was elevated to 45° C., so that a reaction was started. A sample was collected, each in an amount of 100 μL, at predetermined time intervals for a predetermined period of time (0 to 180 minutes), and absorbance (340 nm) of each sample was measured. Phosphite dehydrogenase activity was evaluated in terms of an amount of NADH generated by 1 mg of protein per unit time.
PtxD4506 and PtxDPst, which were purified with use of the HisTrap column in [3. Expression of Phosphite Dehydrogenase Protein Using Escherichia Coli] were examined in terms of heat resistance. The following description discusses how measurement of heat resistance was carried out.
Each of the purified PtxD4506 and PtxDPst was added to 50 mM of a MOPS buffer (pH 7.4) so as to have a final concentration of 0.2 mg/mL. 100 μL of an enzyme solution thus obtained was supplied to a 1.5-mL tube, and 100 μL of mineral oil was added to the enzyme solution in order to prevent evaporation. A temperature of the tube was maintained at 10° C. to 60° C. for 12 hours. […]

[3] = Solubility of His-tagged phosphite dehydrogenase forcibly expressed in E. coli (supernatant vs sediment, SDS-PAGE); format: physicochemical, Escherichia coli; details: expressed in E. coli Rosetta2 (DE3), disruption buffer 50 mM Tris-HCl pH 7.4, 50 mM NaCl, 0.1% Tween20, centrifuged 15,000 rpm, CBB
Description: By a well-known method, the base sequence of SEQ ID NO: 2 or a phosphite dehydrogenase gene (SEQ ID NO: 4) of P stutzeri WM88 was inserted into a plasmid pET21b (produced by Novagen) (an amino acid sequence of the protein encoded by the base sequence of SEQ ID NO: 4 is shown in SEQ ID NO: 3) to prepare (i) an expression vector of a fusion protein (see “PtxD4506” in FIG. 2) in which the C-terminal of the phosphite dehydrogenase protein of SEQ ID NO: 1 is labeled with a His tag or (ii) an expression vector of a fusion protein (see “PtxDPst” in FIG. 2) in which the C-terminal of the phosphite dehydrogenase protein of P stutzeri WM88 is labeled with a His tag.
A competent cell Rosetta2 (DE3) (produced by Novagen) was transformed by a well-known method with use of each of the expression vectors.
Transformants thus obtained were inoculated on a 200 mL LB culture medium (containing 10 g of polypeptone, 5 g of yeast extract, and 5 g of NaCl per liter of the culture-medium), and were cultured at 37° C. until OD600 reached 0.5. Subsequently, IPTG (isopropyl thiogalactoside) was added to the culture so as to have a concentration of 1 mM. Then, the culture was incubated for another 3 more hours at 28° C.
The culture was centrifuged at 6,000 rpm for 15 minutes, and bacteria, which were sediment, were collected. The bacteria were suspended in a buffer for disruption (50 mM Tris-HCl (pH: 7.4), 50 mM NaCl), and a suspension thus obtained was subjected to an ultrasonic treatment, so that the bacteria were disrupted. Subsequently, Tween20 (Registered Trademark) was added to a resultant solution of the disrupted bacteria so as to have a final concentration of 0.1%, and was left still on ice for 15 minutes. Note that the buffer for disruption containing the disrupted bacteria is indicated as “T” in FIG. 2.
The buffer for disruption containing the disrupted bacteria was centrifuged at 15,000 rpm and 4° C. for 15 minutes. After the centrifugation, a resultant product was divided into a supernatant and sediment. In FIG. 2, the supernatant is indicated as “S” and the sediment is indicated as “I.”
The buffer for disruption (T) containing the disrupted bacteria, the supernatant (S), and the sediment (I) described above were separated by SDS-PAGE. Subsequently, an acrylamide gel was dyed with CBB stain one (produced by Nacalai), and an amount of the phosphite dehydrogenase protein was measured.

[4] = Reaction kinetic analysis of phosphite dehydrogenase protein (NADH production rate vs NAD+ concentration); format: biochemical; details: ratio PtxD4506 / PtxDPst
Method: PtxD4506 and PtxDPst, which were purified with use of the HisTrap column in [3. Expression of Phosphite Dehydrogenase Protein By Using Escherichia Coli], were compared with each other in terms of reaction rate. The following description discusses how measurement of reaction rates was carried out.
Reaction rates of respective PtxD4506 and PtxDPst were calculated on the basis of (Reaction formula 1) shown in the section [Background Art].
Specifically, in the reaction system of (Reaction formula 1), a production rate of NADH was measured with use of 7.5 μg of each of the fusion proteins PtxD4506 and PtxDPst while a concentration of a substrate (NAD^+) was gradually changed from 0.5 μM to 200 μM. […]
Based on the measured concentration of the substrate (NAD^+) and the measured production rate of NADH, values of Km (μM), Vmax (μmol/min/m), Kcat (min^−1), and Kcat/km were calculated in accordance with a well-known enzyme kinetic method (see, for example, “Fundamental Experiment Method of Proteins and Enzymes (2nd revised edition), Nankodo Co., Ltd.”). Note that the experiment was carried out three times, and values of Km, Vmax, Kcat, and Kcat/km were calculated in each of the experiments. Then, for each of Km, Vmax, Kcat, and Kcat/km, an average of the values calculated in the three experiments was obtained and defined as the value of each of Km, Vmax, Kcat, and Kcat/km. […]

B1: PtxD4506: fusion protein: phosphite dehydrogenase protein of SEQ ID NO: 1 (from Ralstonia sp. strain 4506), C-terminal labeled with a His tag (protein)
chain: MKPKVVLTHWVHPEIIELLSASADVIPNTTRETLPRSEVIARAKDADALMAFMPDSIDSAFLEECPKLRVIGAALKGYDNFDVNACTRHGVWLTIVPDLLTIPTAELTIGLLLGLTRHMLEGDRQIRSGHFQGWRPTLYGSGLTGKTLGIIGMGAVGRAIAQRLAGFEMNLLYCDPIPLNAEQEKAWHVQRVTLDELLEKCDYVVPMVPMAAETLHLIDATALAKMKTGSYLINACRGSVVDENAVIAALASGKLAGYAADVFEMEEWIRADRPQAIPKALLDNTAQTFFTPHLGSAVKEVRLEIERQAAMNIIQALAGEKPMGAINQPYPGVKAA
modifications: C-terminal His tag; Ralstonia sp. 4506
For B1, the “relative value of OD340” value ([1]; NaCl (50 μL of 40 mM in reaction solution), single experiments 1-5, 60 min, PtxD4506 at 45° C., PtxDPst at 30° C.) was 92.6 and 96.9 and 95.7 and 95.9 and 87.1, the “relative value of OD340, average” value [1] was 93.6 and the “temperature at which specific activity is the highest (optimum temperature)” value [2] was “about 50 °C”. For the same molecule, the “fusion protein present in the sediment (I)” value [3] was “approximately 8.6%”, the “fusion protein present in the supernatant (S)” value [3] was “approximately 91.4%” and the “Km relative to that of PtxDPst” value [4] was “about a third”.

B2: PtxDPst: fusion protein: phosphite dehydrogenase protein of P stutzeri WM88 (SEQ ID NO: 3), C-terminal labeled with a His tag (protein, listed as Pseudomonas stutzeri)
chain: MLPKLVITHRVHDEILQLLAPHCELMTNQTDSTLTREEILRRCRDAQAMMAFMPDRVDADFLQACPELRVVGCALKGFDNFDVDACTARGVWLTFVPDLLTVPTAELAIGLAVGLGRHLRAADAFVRSGEFQGWQPQFYGTGLDNATVGILGMGAIGLAMADRLQGWGATLQYHEAKALDTQTEQRLGLRQVACSELFASSDFILLALPLNADTQHLVNAELLALVRPGALLVNPCRGSVVDEAAVLAALERGQLGGYAADVFEMEDWARADRPRLIDPALLAHPNTLFTPHIGSAVRAVRLEIERCAAQNIIQVLAGARPINAANRLPKAEPAAC
modifications: C-terminal His tag
With B2 the “relative value of OD340, average” value [1] was 89.3, the “temperature at which specific activity is the highest (optimum temperature)” value [2] was “about 35 °C” and the “fusion protein present in the sediment (I)” value [3] was “approximately 81.6%”. The “fusion protein present in the supernatant (S)” value [3] was “approximately 18.4%”.
